# Reference: IntAct's records for PubMed 25910212
# B1: Cullin-4B (Homo sapiens), Q13620 (parent)
# chain: MMSQSSGSGDGNDDEATTSKDGGFSSPSPSAAAAAQEVRSATDGNTSTTPPTSAKKRKLNSSSSSSSNSSNEREDFDSTSSSSSTPPLQPRDSASPSTSSFCLGVSVAASSHVPIQKKLRFEDTLEFVGFDAKMAEESSSSSSSSSPTAATSQQQQLKNKSILISSVASVHHANGLAKSSTTVSSFANSKPGSAKKLVIKNFKDKPKLPENYTDETWQKLKEAVEAIQNSTSIKYNLEELYQAVENLCSYKISANLYKQLRQICEDHIKAQIHQFREDSLDSVLFLKKIDRCWQNHCRQMIMIRSIFLFLDRTYVLQNSMLPSIWDMGLELFRAHIISDQKVQNKTIDGILLLIERERNGEAIDRSLLRSLLSMLSDLQIYQDSFEQRFLEETNRLYAAEGQKLMQEREVPEYLHHVNKRLEEEADRLITYLDQTTQKSLIATVEKQLLGEHLTAILQKGLNNLLDENRIQDLSLLYQLFSRVRGGVQVLLQQWIEYIKAFGSTIVINPEKDKTMVQELLDFKDKVDHIIDICFLKNEKFINAMKEAFETFINKRPNKPAELIAKYVDSKLRAGNKEATDEELEKMLDKIMIIFRFIYGKDVFEAFYKKDLAKRLLVGKSASVDAEKSMLSKLKHECGAAFTSKLEGMFKDMELSKDIMIQFKQYMQNQNVPGNIELTVNILTMGYWPTYVPMEVHLPPEMVKLQEIFKTFYLGKHSGRKLQWQSTLGHCVLKAEFKEGKKELQVSLFQTLVLLMFNEGEEFSLEEIKQATGIEDGELRRTLQSLACGKARVLAKNPKGKDIEDGDKFICNDDFKHKLFRIKINQIQMKETVEEQASTTERVFQDRQYQIDAAIVRIMKMRKTLSHNLLVSEVYNQLKFPVKPADLKKRIESLIDRDYMERDKENPNQYNYIA
# partner: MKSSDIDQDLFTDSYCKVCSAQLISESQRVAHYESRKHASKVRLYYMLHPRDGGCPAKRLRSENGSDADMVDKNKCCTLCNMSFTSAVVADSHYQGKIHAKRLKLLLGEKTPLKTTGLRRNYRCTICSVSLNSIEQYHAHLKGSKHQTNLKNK
# B2: Prelamin-A/C (Homo sapiens), P02545-2 (parent)
# chain: METPSQRRATRSGAQASSTPLSPTRITRLQEKEDLQELNDRLAVYIDRVRSLETENAGLRLRITESEEVVSREVSGIKAAYEAELGDARKTLDSVAKERARLQLELSKVREEFKELKARNTKKEGDLIAAQARLKDLEALLNSKEAALSTALSEKRTLEGELHDLRGQVAKLEAALGEAKKQLQDEMLRRVDAENRLQTMKEELDFQKNIYSEELRETKRRHETRLVEIDNGKQREFESRLADALQELRAQHEDQVEQYKKELEKTYSAKLDNARQSAERNSNLVGAAHEELQQSRIRIDSLSAQLSQLQKQLAAKEAKLRDLEDSLARERDTSRRLLAEKEREMAEMRARMQQQLDEYQELLDIKLALDMEIHAYRKLLEGEEERLRLSPSPTSQRSRGRASSHSSQTQGGGSVTKKRKLESTESRSSFSQHARTSGRVAVEEVDEEGKFVRLRNKSNEDQSMGNWQIKRQNGDDPLLTYRFPPKFTLKAGQVVTIWAAGAGATHSPPTDLVWKAQNTWGCGNSLRTALINSTGEEVAMRKLVRSVTVVEDDEDEDGDDLLHHHHVSGSRR
# B3: X-linked retinitis pigmentosa GTPase regulator (Homo sapiens), Q92834 (parent)
# chain: MREPEELMPDSGAVFTFGKSKFAENNPGKFWFKNDVPVHLSCGDEHSAVVTGNNKLYMFGSNNWGQLGLGSKSAISKPTCVKALKPEKVKLAACGRNHTLVSTEGGNVYATGGNNEGQLGLGDTEERNTFHVISFFTSEHKIKQLSAGSNTSAALTEDGRLFMWGDNSEGQIGLKNVSNVCVPQQVTIGKPVSWISCGYYHSAFVTTDGELYVFGEPENGKLGLPNQLLGNHRTPQLVSEIPEKVIQVACGGEHTVVLTENAVYTFGLGQFGQLGLGTFLFETSEPKVIENIRDQTISYISCGENHTALITDIGLMYTFGDGRHGKLGLGLENFTNHFIPTLCSNFLRFIVKLVACGGCHMVVFAAPHRGVAKEIEFDEINDTCLSVATFLPYSSLTSGNVLQRTLSARMRRRERERSPDSFSMRRTLPPIEGTLGLSACFLPNSVFPRCSERNLQESVLSEQDLMQPEEPDYLLDEMTKEAEIDNSSTVESLGETTDILNMTHIMSLNSNEKSLKLSPVQKQKKQQTIGELTQDTALTENDDSDEYEEMSEMKEGKACKQHVSQGIFMTQPATTIEAFSDEEVGNDTGQVGPQADTDGEGLQKEVYRHENNNGVDQLDAKEIEKESDGGHSQKESEAEEIDSEKETKLAEIAGMKDLREREKSTKKMSPFFGNLPDRGMNTESEENKDFVKKRESCKQDVIFDSERESVEKPDSYMEGASESQQGIADGFQQPEAIEFSSGEKEDDEVETDQNIRYGRKLIEQGNEKETKPIISKSMAKYDFKCDRLSEIPEEKEGAEDSKGNGIEEQEVEANEENVKVHGGRKEKTEILSDDLTDKAEDHEFSKTEELKLEDVDEEINAENVESKKKTVGDDESVPTGYHSKTEGAERTNDDSSAETIEKKEKANLEERAICEYNENPKGYMLDDADSSSLEILENSETTPSKDMKKTKKIFLFKRVPSINQKIVKNNNEPLPEIKSIGDQIILKSDNKDADQNHMSQNHQNIPPTNTERRSKSCTIL
# partner: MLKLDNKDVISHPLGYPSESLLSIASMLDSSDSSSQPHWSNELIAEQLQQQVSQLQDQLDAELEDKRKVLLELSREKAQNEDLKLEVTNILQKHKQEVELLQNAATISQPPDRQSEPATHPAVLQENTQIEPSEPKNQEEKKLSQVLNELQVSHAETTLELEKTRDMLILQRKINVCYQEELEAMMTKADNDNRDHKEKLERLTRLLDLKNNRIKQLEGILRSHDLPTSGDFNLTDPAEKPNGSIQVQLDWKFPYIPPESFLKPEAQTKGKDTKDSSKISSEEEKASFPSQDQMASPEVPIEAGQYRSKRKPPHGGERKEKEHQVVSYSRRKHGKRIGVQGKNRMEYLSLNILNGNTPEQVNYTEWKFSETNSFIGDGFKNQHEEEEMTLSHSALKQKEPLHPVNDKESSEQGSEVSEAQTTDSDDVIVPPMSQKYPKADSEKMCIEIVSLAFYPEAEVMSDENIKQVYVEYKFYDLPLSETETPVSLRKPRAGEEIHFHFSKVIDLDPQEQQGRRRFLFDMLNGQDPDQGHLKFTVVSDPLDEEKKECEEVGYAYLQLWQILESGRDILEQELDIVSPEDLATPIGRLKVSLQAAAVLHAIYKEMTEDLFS
# B4: Acetylcholine receptor subunit gamma (Homo sapiens), P07510-2 (parent)
# chain: MHGGQGPLLLLLLLAVCLGAQGRNQEERLLADLMQNYDPNLRPAERDSDVVNVSLKLTLTNLISLNEREEALTTNVWIEMQWCDYRLRWDPRDYEGLWVLRVPSTMVWRPDIVLENKSQTYSTNEIDLQLSQEDGQTIEWIFIDPEAFTENGEWAIQHRPAKMLLDPAAPAQEAGHQKVVFYLLIQRKPLFYVINIIAPCVLISSVAILIHFLPAKAGGQKCTVAINVLLAQTVFLFLVAKKVPETSQAVPLISKYLTFLLVVTILIVVNAVVVLNVSLRSPHTHSMARGVRKVFLRLLPQLLRMHVRPLAPAAVQDTQSRLQNGSSGWSITTGEEVALCLPRSELLFQQWQRQGLVAAALEKLEKGPELGLSQFCGSLKQAAPAIQACVEACNLIACARHQQSHFDNGNEEWFLVGRVLDRVCFLAMLSLFICGTAGIFLMAHYNRVPALPFPGDPRPYLPSPD
# partner: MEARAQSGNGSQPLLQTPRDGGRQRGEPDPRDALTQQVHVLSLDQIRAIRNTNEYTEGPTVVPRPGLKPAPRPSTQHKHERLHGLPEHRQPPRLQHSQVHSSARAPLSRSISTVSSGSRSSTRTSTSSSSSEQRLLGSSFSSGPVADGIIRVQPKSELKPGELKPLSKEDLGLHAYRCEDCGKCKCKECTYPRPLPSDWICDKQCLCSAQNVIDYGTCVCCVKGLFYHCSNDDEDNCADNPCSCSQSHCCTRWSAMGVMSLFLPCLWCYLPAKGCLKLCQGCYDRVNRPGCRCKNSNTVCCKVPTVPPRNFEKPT
# Variants of: B1
# Conditions: with ZMAT4, Q9H898-2
row,effect of a mutation on the interaction,Variant
1,with no effect,T213I

# Variants of: B2
# Conditions: with syce1_human SYCE1, Q8N0S2
# Chain of syce1_human SYCE1, Q8N0S2 (Q8N0S2 whole entry): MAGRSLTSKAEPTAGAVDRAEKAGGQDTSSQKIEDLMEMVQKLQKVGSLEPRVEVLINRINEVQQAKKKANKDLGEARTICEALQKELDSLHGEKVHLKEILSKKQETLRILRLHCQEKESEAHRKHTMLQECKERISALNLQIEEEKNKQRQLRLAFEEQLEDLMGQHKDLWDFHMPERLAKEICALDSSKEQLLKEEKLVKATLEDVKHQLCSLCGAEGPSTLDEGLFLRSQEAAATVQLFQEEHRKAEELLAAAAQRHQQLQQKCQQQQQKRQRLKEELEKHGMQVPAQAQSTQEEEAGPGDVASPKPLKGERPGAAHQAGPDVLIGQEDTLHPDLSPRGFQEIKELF
row,effect of a mutation on the interaction,Variant
1,disrupting interaction strength,R60G
2,disrupting interaction strength,R377L
3,disrupting interaction strength,L162P

# Variants of: B3
# Conditions: with RPGRIP1, Q96KN7-4
row,Variant,effect of a mutation on the interaction
1,R425K,with no effect
2,Q184H,with no effect

# Second part, the variant after the results:
row,effect of a mutation on the interaction,Variant
1,disrupting interaction strength,H98Q
2,with no effect,G436D
3,disrupting interaction strength,T255I

# Variants of: B4
# Conditions: with spy2_human SPRY2, O43597
row,effect of a mutation on the interaction,Variant
1,disrupting interaction strength,R187C
